Reference: patent publication US20250295731A1

Experiments:
α9β1 integrin [1] = biological target: α9β1 integrin (UniProt Q13797); experiment: inhibition of α9LN18 cell adhesion to immobilized F9 fraction
α9β1 integrin [2] = biological target: α9β1 integrin (UniProt Q13797); experiment: inhibition of α9LN18 cell adhesion to immobilized recombinant VCAM-1
α9β1 integrin [3] = biological target: α9β1 integrin (UniProt Q13797); experiment: inhibition of α9+ cell adhesion to immobilized VCAM-1
α9β1 integrin [4] = biological target: α9β1 integrin (UniProt Q13797); experiment: inhibition of α9+ cell adhesion to immobilized Fraction 9-4

Chain of UniProt Q13797 (Q13797 30-1035, chain 1 of 2): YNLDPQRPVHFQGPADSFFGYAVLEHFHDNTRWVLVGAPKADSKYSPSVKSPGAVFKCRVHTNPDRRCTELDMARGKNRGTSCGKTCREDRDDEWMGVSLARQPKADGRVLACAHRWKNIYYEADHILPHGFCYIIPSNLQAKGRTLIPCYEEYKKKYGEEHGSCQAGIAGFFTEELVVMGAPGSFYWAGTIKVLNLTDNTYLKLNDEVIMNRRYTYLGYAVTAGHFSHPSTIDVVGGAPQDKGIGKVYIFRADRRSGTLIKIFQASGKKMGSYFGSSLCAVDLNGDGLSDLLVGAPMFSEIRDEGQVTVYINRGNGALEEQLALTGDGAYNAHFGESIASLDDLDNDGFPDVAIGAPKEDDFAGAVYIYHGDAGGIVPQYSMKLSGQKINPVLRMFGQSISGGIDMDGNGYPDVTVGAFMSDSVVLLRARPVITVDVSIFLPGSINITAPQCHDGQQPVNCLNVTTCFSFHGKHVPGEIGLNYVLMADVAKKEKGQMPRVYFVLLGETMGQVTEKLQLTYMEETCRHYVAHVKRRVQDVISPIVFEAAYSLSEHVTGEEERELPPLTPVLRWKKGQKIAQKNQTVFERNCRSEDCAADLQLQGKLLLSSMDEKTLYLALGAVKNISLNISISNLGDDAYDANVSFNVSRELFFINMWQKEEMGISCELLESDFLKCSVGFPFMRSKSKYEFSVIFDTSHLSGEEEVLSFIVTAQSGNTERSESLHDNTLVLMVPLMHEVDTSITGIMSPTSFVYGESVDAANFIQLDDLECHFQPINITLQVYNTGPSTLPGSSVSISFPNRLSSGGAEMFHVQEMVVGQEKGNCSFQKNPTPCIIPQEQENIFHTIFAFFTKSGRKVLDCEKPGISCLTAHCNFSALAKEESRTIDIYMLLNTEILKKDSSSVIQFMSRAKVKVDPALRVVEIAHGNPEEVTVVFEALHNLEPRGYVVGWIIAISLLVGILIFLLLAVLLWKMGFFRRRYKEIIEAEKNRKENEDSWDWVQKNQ
Chain of UniProt Q13797 (P05556 21-798, chain 2 of 2, further chain): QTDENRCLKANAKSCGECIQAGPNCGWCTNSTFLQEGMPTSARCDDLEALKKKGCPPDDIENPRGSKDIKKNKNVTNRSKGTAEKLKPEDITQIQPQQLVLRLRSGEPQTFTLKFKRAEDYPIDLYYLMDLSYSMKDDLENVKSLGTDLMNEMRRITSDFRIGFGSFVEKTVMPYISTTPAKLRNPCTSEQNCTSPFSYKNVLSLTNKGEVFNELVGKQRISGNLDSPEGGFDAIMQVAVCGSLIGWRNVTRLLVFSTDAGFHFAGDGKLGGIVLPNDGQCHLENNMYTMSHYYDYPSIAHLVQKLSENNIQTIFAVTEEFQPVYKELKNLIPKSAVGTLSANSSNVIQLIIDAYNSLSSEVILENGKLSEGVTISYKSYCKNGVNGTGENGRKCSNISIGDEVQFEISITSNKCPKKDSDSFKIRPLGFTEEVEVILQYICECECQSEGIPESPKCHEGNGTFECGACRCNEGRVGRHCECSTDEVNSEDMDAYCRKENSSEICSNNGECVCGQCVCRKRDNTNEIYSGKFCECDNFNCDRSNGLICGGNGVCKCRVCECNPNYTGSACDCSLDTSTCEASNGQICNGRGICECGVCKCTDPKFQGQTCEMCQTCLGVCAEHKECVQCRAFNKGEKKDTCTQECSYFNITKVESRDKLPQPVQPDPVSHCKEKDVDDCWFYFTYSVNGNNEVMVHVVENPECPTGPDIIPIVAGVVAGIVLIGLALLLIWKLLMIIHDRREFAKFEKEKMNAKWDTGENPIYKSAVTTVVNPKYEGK
Chain of VLO5, snake venom MLD-disintegrin (P0C6A9 whole entry): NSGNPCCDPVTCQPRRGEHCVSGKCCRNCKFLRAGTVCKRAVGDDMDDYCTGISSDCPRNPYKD
Chain of VLO5, snake venom MLD-disintegrin (P0C6B0 whole entry, further chain): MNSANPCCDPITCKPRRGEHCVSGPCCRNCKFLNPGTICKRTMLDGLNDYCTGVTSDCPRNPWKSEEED

| concentration giving complete inhibition of cell adhesion (α9β1 integrin [1]) | concentration giving complete inhibition of cell adhesion (α9β1 integrin [2]) | Substance | IC50 (α9β1 integrin [3]) | IC50 (α9β1 integrin [4]) |
| --- | --- | --- | --- | --- |
| 500 µM | 500 µM | CS-1 peptide EILDVPST |  |  |
|  |  | VLO5, snake venom MLD-disintegrin | 3.2 nM | 5.6 nM |
